One data set relates to KE4-CTL. The experiment in a line: IFN-γ production from KE4-CTL against VA13 cells co-transfected with cDNA clone and HLA-A2601. It counts as cell-based, human. From the text:
A gene encoding a tumor antigen recognized by KE4-CTL was isolated/identified from a human esophageal cancer cell line KE4 according to a known method [J. Exp. Med., 187: 277-288, 1998.] First of all, poly (A) ^+RNA of KE4 cells was converted to cDNA, ligated with a SalI adaptor so as to insert into the expression vector pSV-SPORT-1 (Invitrogen Corp.). Moreover, cDNA of HLA-A2601 was obtained by the reverse transcription-polymerase chain reaction (RT-PCR) and cloned into the eukaryotic cell expression vector pCR3 (Invitrogen Corp.).
A cDNA library of KE4 cells was pooled so that each pool contained 100 clones, and 200 ng of the cDNA pooled in each well and 200 ng of the HLA-A2601cDNA were mixed in 100 μl of lipofectoamine (Invitrogen Corp.)/Opti-MEM (Invitrogen Corp.) 1:200 mixture for 30 min. 50 μl of the obtained mixture was added to VA13 cells (1×10^4), and incubated for 6 h for co-transduction. Then, RPMI-1640 culture medium containing 10% FCS was added thereto and culturing was carried out for 2 days, followed by addition of KE4-CTL (2×10^5) to each well. After a further 18 h incubation, 100 μl of the supernatant was collected, and IFN-γ production was measured by ELISA.
A pool of cDNA library was screened with the criteria in which cDNA capable of enhancing IFN-γ production from KE4-CTL was judged as a positive one having CTL-activating ability. […]

The next data set concerns OK-CTLd. The experiment in a line: IFN-γ production from OK-CTLd against COS-7 cells co-transfected with cDNA clone and HLA-A0207 (ELISA). In kind it is cell-based, human. Here is the method:
Cryopreserved OK-CTLd was cultured in the presence of 100 U/ml of IL-2 for 2 weeks or more to use in the experiments.
A cDNA library of SW620 cells was pooled so that each pool contained 100 clones, and 200 ng of the cDNA pooled in each well and 200 ng of the HLA-A0207 cDNA were mixed in 100 ul of lipofectoamine (Invitrogen Corp.)/Opti-MEM (Invitrogen Corp.) 1:200 mixture for 30 min. 50 μl of the obtained mixture was added to a simian kidney cell line COS-7 (1×10^4), and incubated for 6 h for co-transduction. Then, RPMI-1640 culture medium containing 10% FCS was added to and culturing was carried out for 2 days, followed by addition of OK-CTLd (2×10^5) to each well. After a further 18 h incubation, 100 μl of the supernatant was collected, and IFN-γ production was measured by ELISA. In this case, as a negative control, using COS-7 cells into which the gene had not been transfected as a target, IFN-γ production from OK-CTLd was examined and the value of IFN-γ produced was subtracted as a background from that of each measurement.
A pool of cDNA library was screened with the criteria in which cDNA capable of enhancing IFN-γ production from OK-CTLd was judged as a positive one having CTL-activating ability. […]
(ELISA stands for enzyme-linked immunosorbent assay.)

B1: KE4-cl.18: cDNA clone from esophageal cancer cell line KE4 encoding KE4-18-PP (nucleic acid, listed as Homo sapiens)
DNA: GGGGCCGGGGCCGAGGCCGCGGAGCTCGCGGAGGCAAGGCCGAGGATAAGGAGTGGATGCCCGTCACCAAGTTGGGCCGCTTGGTCAAGGACATGAAGATCAAGTCCCTGGAGGAGATCTATCTCTTCTCCCTGCCCATTAAGGAATCAGAGATCATTGATTTCTTCCTGGGGGCCTCTCTCAAGGATGAGGTTTTGAAGATTATGCCAGTGCAGAAGCAGACCCGTGCCGGCCAGCGCACCAGGTTCAAGGCATTTGTTGCTATCGGGGACTACAATGGCCACGTCGGTCTGGGTGTTAAGTGCTCCAAGGAGGTGGCCACCGCCATCCGTGGGGCCATCATCCTGGCCAAGCTCTCCATCGTCCCCGTGCGCAGAGGCTACTGGGGGAACAAGATCGGCAAGCCCCACACTGTCCCTTGCAAGGTGACAGGCCGCTGCGGCTCTGTGCTGGTACGCCTCATCCCTGCACCCAGGGGCACTGGCATCGTCTCCGCACCTGTGCCTAAGAAGCTGCTCATGATGGCTGGTATCGATGACTGCTACACCTCAGCCCGGGGCTGCACTGCCACCCTGGGCAACTTCGCCAAGGCCACCTTTGATGCCATTTCTAAGACCTACAGCTACCTGACCCCCGACCTCTGGAAGGAGACTGTATTCACCAAGTCTCCCTATCAGGAGTTCACTGACCACCTCGTCAAGACCCACACCAGAGTCTCCGTGCAGCGGACTCAGGCTCCAGCTGTGGCTACAACATAGGGTTTTTATACAAGAAAAATAAAGTGAATTTAGCGTGAAAAAAAAAAAAAAAAAAAAAAAAAA
For B1, in the data set on KE4-CTL, the “recognition of cDNA clone by KE4-CTL, enhancement of IFN-γ production” value is “recognized by KE4-CTL in an HLA-A26-restricted manner and in a dose dependent manner of plasmid”.

B2: SW620-cl.48: cDNA clone from SW620 encoding SW620-48-PP (nucleic acid, listed as Homo sapiens)
DNA: CCTTTCCAAGGGAGTGGTTGTGTGATCGCCATCTTAGGGAAAAGATGTTCTCGTCCGTGGCGCACCTGGCGCGGGCGAACCCCTTCAACACGCCACATCTGCAGCTGGTGCACGATGGTCTCGGGGACCTCCGCAGCAGCTCCCCAGGGCCCACGGGCCAGCCCCGCCGCCCTCGCAACCTGGCAGCCGCCGCCGTGGAAGAGTACAGTTGTGAATTTGGCTCCGCGAAGTATTATGCACTGTGTGGCTTTGGTGGGGTCTTAAGTTGTGGTCTGACACACACTGCTGTGGTTCCCCTGGATTTAGTGAAATGCCGTATGCAGGTGGACCCCCAAAAGTACAAGGGCATATTTAACGGATTCTCAGTTACACTTAAAGAGGATGGTGTTCGTGGTTTGGCTAAAGGATGGGCTCCGACTTTCCTTGGCTACTCCATGCAGGGACTCTGCAAGTTTGGCTTTTATGAAGTCTTTAAAGTCTTGTATAGCAATATGCTTGGAGAGGAGAATACTTATCTCTGGCGCACATCACTATATTTGGCTGCCTCTGCCAGTGCTGAATTCTTTGCTGACATTGCCCTGGCTCCTATGGAAGCTGCTAAGGTTCGAATTCAAACCCAGCCAGGTTATGCCAACACTTTGAGGGATGCAGCTCCCAAAATGTATAAGGAAGAAGGCCTAAAAGCATTCTACAAGGGGGTTGCTCCTCTCTGGATGAGACAGATACCATACACCATGATGAAGTTCGCCTGCTTTGAACGTACTGTTGAAGCACTGTACAAGTTTGTGGTTCCTAAGCCCCGCAGTGAATGTTCAAAGCCAGAGCAGCTGGTTGTAACATTTGTAGCAGGTTACATAGCTGGAGTCTTTTGTGCAATTGTTTCTCACCCTGCTGATTCTGTGGTATCTGTGTTGAATAAAGAAAAAGGTAGCAGTGCTTCTCTGGTCCTCAAGAGACTTGGATTTAAAGGTGTATGGAAGGGACTGTTTGCCCGTATCATCATGATTGGTACCCTGACTGCACTACAGTGGTTTATCTATGACTCCGTGAAGGTCTACTTCAGACTTCCTCGCCCTCCTCCACCCGAGATGCCAGAGTCTCTGAAGAAGAAGCTTGGGTTAACTCAGTAGTTAGATCAAAGCAAATGTGGACTGAATCTGCTTGTTGATCAGTGTTGAAGAAAGTGCAAAAGGAACTTTTATATATTTGACAGTGTAGGAAATTGTCTATTCCTGATATAATTACTGTAGTACTCTTGCTTAAGGCAAGAGTTTCAGATTTACTGTTGAAATAAACCCAACTCTTCATGAAAAAAAAAAAAAAA
Take B2: the “recognition of cDNA clone by OK-CTLd, enhancement of IFN-γ production” value with OK-CTLd was “recognized by OK-CTLd in an HLA-A2-restricted manner and in a dose dependent manner of plasmid”.

For the origin of these results see patent publication US20050042624A1, “Tumor antigen” (Kyogo ITOH, priority 2001, published 2005).
